Paper PMC12152739

Test system: CC(C)(O/N=C(\C(=O)N[C@@H]1C(=O)N2C(C(=O)[O-])=C(C[N+]3(CCNC(=O)c4ccc(O)c(O)c4Cl)CCCC3)CS[C@H]12)c1csc(N)n1)C(=O)O
Assay: purified protein, by the assay type
Settings: other: FDC hydrolysis by VIM-2, 30 °C, pH 7.5

VIM-2 (Escherichia coli) showed a kcat of 1.1 ± 0.14 s⁻¹.
